Test results reported in patent publication US20240083991A1 (Pfizer, published 2024).
Positions count from the first letter of the chain named. Values joined by “and” are separate entries in the source; they are usually repeats but may differ in a detail not shown here. Equal entries are not always repeated. Where two headings read alike, the source gives them in different places.

Tests used:
human mature BMP9 [1] = target: T1, human mature BMP9 (human, UniProt Q9UK05 320-429); test: cell-based or functional assay
T1 sequence: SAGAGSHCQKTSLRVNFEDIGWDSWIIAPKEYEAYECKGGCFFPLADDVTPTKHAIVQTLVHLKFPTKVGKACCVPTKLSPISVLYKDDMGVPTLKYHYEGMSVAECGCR

cyno BMP9 (mature) [2] = target: T2, cyno BMP9 (mature) (cynomolgus monkey, UniProt G7PEU8 320-429); test: cell-based or functional assay
T2 sequence: T1 sequence with A2T, D23N, V84I

human mature BMP9 [3] = target: T1, human mature BMP9; test: cell-based or functional assay; remark: listed apart in the source
rat BMP9 (mature) [4] = target: T3, rat BMP9 (mature) (rat, UniProt M0RB87 320-430, Chemically biotinylated for capture on the SPR chip; sites not stated. Natural mature BMP9 is a disulfide-linked homodimer; one monomer chain is given.); test: cell-based or functional assay
T3 sequence: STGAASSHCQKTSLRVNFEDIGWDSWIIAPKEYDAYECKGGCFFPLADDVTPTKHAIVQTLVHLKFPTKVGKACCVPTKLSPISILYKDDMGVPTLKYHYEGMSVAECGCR

human mature BMP9 [5] = target: T1, human mature BMP9; test: cell-based or functional assay; remark: listed apart in the source
cyno BMP9 (mature) [6] = target: T2, cyno BMP9 (mature); test: cell-based or functional assay; remark: listed apart in the source
rat BMP9 (mature) [7] = target: T3, rat BMP9 (mature); test: cell-based or functional assay; remark: listed apart in the source
cyno BMP9 (mature) [8] = target: T2, cyno BMP9 (mature); test: cell-based or functional assay; remark: listed apart in the source
rat BMP9 (mature) [9] = target: T3, rat BMP9 (mature); test: cell-based or functional assay; remark: listed apart in the source
human mature BMP9 [10] = target: T1, human mature BMP9; test: cell-based or functional assay; remark: listed apart in the source
rat BMP9 (mature) [11] = target: T3, rat BMP9 (mature); test: cell-based or functional assay; remark: listed apart in the source
human mature BMP9 [12] = target: T1, human mature BMP9; test: cell-based or functional assay; remark: listed apart in the source
human mature BMP9 [13] = target: T1, human mature BMP9; test: competition ELISA: antibody mixed with 0.6 nM BMP9-biotin, binding to coated BMPRII (1 µg/ml) detected
Protocol: For competition ELISAs, each receptor protein was coated on a 384-well ELISA plate at its optimal coating concentration, 20 μl/well in PBS-CMF at 4° C. overnight. The next day, plates were washed 3 times with PBS+0.05% TWEEN™ 20 and blocked with PBS+1% BSA for 1 hr at RT with shaking. Anti-BMP9 Abs were serially diluted 3-fold in PBS+1% BSA, starting from 100 nM, then mixed with the same volume of the optimal concentration of biotinylated BMP9. The final concentration of biotinylated BMP9 corresponded to the EC₉₀ for each receptor, as determined in a preliminary experiment described above.
Serially diluted Abs were incubated with biotinylated BMP9 for at least 15 min at RT. Plates were washed as before, followed by addition of serially diluted Abs and the biotinylated BMP9 mixture. After incubating for 1 hr at RT, plates were washed 3 times with PBS+0.05% TWEEN™ 20. Secondary antibody was added (HRP-Streptavidin from BioLegend, cat #405210, 1:2000), followed by 1 hr incubation at RT. Plates were washed as before, signal was developed using TMB substrate, and the reaction stopped with 0.18 M H₂SO₄. Absorbance was read at 450 nm on an ENVISION® plate reader (Perkin Elmer).

human mature BMP9 [14] = target: T1, human mature BMP9; test: method not stated (legend of the crystal structure figure)
cyno BMP9 (mature) [15] = target: T2, cyno BMP9 (mature); test: cell-based or functional assay; remark: listed apart in the source
human mature BMP9 [16] = target: T1, human mature BMP9; test: cell-based or functional assay; remark: listed apart in the source
human mature BMP9 [17] = target: T1, human mature BMP9; test: cell-based or functional assay; remark: listed apart in the source

- IC50 (read off the curve): BMP9-induced pSMAD2 nuclear translocation, TIME cells (human mature BMP9 [1]): ~0.04 nM
- IC50 (read off the curve): BMP9-induced pSMAD2 nuclear translocation, cynomolgus monkey PAEC (cyno BMP9 (mature) [2]): 0.016 to 0.03 nM
- IC50 (read off the curve): BMP9-induced pSMAD1/5/9 nuclear translocation, TIME cells (human mature BMP9 [3]): ~0.03 nM
- IC50 (read off the curve): BMP9-induced pSMAD1/5/9 nuclear translocation, rat LSEC (rat BMP9 (mature) [4]): ~0.3 nM
- IC50 (read off the curve): BMP9-induced pSMAD2 nuclear translocation, HPAEC (human mature BMP9 [5]): ~0.03 nM
- IC50, inhibition of BMP9-induced phospho-SMAD2 nuclear translocation in endothelial cells (cyno BMP9 (mature) [6]): 0.027 to 0.042 nM
- IC50, inhibition of BMP9-induced phospho-SMAD2 nuclear translocation in endothelial cells (rat BMP9 (mature) [7]): 0.465 nM and 1 nM
- IC50 (read off the curve): Cyno BMP9-induced pSMAD1/5/9 nuclear translocation, TIME cells (cyno BMP9 (mature) [8]): ~0.1 nM
- IC50 (read off the curve): Rat BMP9-induced pSMAD1/5/9 nuclear translocation, TIME cells (rat BMP9 (mature) [9]): ~0.1 nM
- IC50 (read off the curve): Human BMP9-induced pSMAD1/5/9 nuclear translocation, TIME cells (human mature BMP9 [10]): ~0.1 nM
- IC50 (read off the curve): BMP9-induced pSMAD2 nuclear translocation, rat LSEC (rat BMP9 (mature) [11]): ~0.5 nM
- IC50 (read off the curve): BMP9-induced pSMAD2 nuclear translocation, TIME cells (human mature BMP9 [12]): ~0.04 nM
- IC50 (read off the curve) (human mature BMP9 [13]): ~0.3 nM
- fold increase in binding affinity relative to Ab93 (human mature BMP9 [14]): ~20 fold
- IC50 (read off the curve): BMP9-induced pSMAD1/5/9 nuclear translocation, cynomolgus monkey PAEC (cyno BMP9 (mature) [15]): ~0.02 nM
- IC50 (read off the curve): BMP9-induced pSMAD1/5/9 nuclear translocation, TIME cells (human mature BMP9 [16]): ~0.03 nM
- IC50 (read off the curve): BMP9-induced pSMAD1/5/9 nuclear translocation, HPAEC (human mature BMP9 [17]): ~0.04 nM
B1: Ab1076 (antibody, human IgG1, lambda, V domains shown)
VH: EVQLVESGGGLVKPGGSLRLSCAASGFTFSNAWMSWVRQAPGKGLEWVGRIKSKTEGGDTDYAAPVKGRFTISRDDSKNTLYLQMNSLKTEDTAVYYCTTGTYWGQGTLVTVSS
VL: QSVLTQPPSASGTPGQRVTISCSVTNTDIDIFNVHWYQQLPGTAPKLLFFHDYRPSGVSDRFSGSKSGTSASLAIVGLQSEDEGYYYCAGLDEAMRGPVFGGGTKLTVLG
notes: The heavy chain can be prepared with or without the C-terminal lysine
